Laboratory results from US12617816B2 (priority 2019, dated 2026).
Where two headings read alike, the source gives them in different places.

Key:
[1] = molecular target: T1, human mu-opioid receptor (Homo sapiens, UniProt P35372); test: cell-based; format: binding
T1 construct: host or cells: CHO-K1

[2] = molecular target: T1, human mu-opioid receptor; format: cell-based
[3] = tested on: MOR; design: species or system mice; conditions: in vivo
[4] = molecular target: MOR (Homo sapiens, UniProt P35372)
[5] = mouse, in vivo
[6] = in vivo; conditions: mouse, iv
[7] = in vivo; cited from earlier work

T1 sequence (P35372 whole entry): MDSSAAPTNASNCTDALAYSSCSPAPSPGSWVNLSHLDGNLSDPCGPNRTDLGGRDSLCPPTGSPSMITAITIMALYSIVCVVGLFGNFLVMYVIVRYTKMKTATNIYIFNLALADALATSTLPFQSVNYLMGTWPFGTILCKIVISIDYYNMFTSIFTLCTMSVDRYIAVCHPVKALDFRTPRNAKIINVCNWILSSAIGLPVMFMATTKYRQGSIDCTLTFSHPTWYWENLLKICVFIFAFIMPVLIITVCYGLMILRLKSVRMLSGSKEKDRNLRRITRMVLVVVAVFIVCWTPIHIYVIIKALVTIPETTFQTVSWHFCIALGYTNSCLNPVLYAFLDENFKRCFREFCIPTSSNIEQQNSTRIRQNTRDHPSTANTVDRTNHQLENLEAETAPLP
Chain of MOR (Homo sapiens, UniProt P35372) (P35372 whole entry): as above

SMILES	IC50 [1] [nM]	Ki [1] [nM]	displacement of retained DRM-800 by naloxone [2]	ratio of enhancement, wildtype to knockout mouse [3] [×]	enhancement in wildtype compared to knockout mice ([3]; mouse)	Binding potential (BP) [4]	tolerability of intravenous injection [5]	distribution half-life (biexponential) ([5]; iv)	elimination (β) half-life (biexponential) ([5]; iv)	persistence in plasma ([5]; iv)	plasma half-life (time in which the concentration of dye is 50% of initial) ([5]; iv) [min]	half-life ([6]; distribution half-life (biexponential)) [min]	half-life ([6]; elimination (β) half-life (biexponential)) [min]	half-life ([6]; plasma half-life (time in which the concentration of dye is 50% of initial)) [min]	half-life [7] [min]
C[C@@H](NC(=O)[C@@H](N)Cc1ccc(O)cc1)C(=O)N[C@@H](Cc1ccccc1)C(=O)NCC(=O)N[C@@H](Cc1ccc(O)cc1)C(=O)N1CCC[C@H]1C(=O)N[C@@H](CCCCN)C(=O)N[C@@H](CSC1CC(=O)N(CCNC(=O)CCCCC[N+]2=C(/C=C/C3=C(Oc4ccc(S(=O)(=O)O)cc4)C(=C/C=C4/N(CCCCS(=O)(=O)O)c5ccc(S(=O)(=O)O)cc5C4(C)C)/CCC3)C(C)(C)c3cc(S(=O)(=O)[O-])ccc32)C1=O)C(N)=O (stereo partly drawn) [DRM-800, [Lys7]dermorphin-IRDye800CW]	3.5	0.64	cannot be displaced even at high concentrations of naloxone	3.1	higher enhancement in the wildtype mice compared to knockout mice	approximately 10	well-tolerated	6.2 (4.9-8.6) min	45 (33-68) min	at least one hour	12.6	3.3	70.8	7.95	–
C=CCN1CC[C@]23c4c5ccc(O)c4O[C@H]2C(=O)CC[C@@]3(O)[C@H]1C5 [naloxone]	–	–	–	–	–	–	–	–	–	–	–	–	–	–	60 to 80
